The source of these data is patent US20110021746A1 (published 2011).

The experiment addresses T1, TNF-α (UniProt P01375 77-233, biotinylated).
T1 construct: also called TNF-alpha; biotintylated TNF-α soluble protein (R&D Systems)
Kind of experiment: Octet BLI, biotinylated TNF-α on streptavidin tips. Here is the method:
The target protein was biotintylated TNF-α soluble protein (R&D Systems) and is at a concentration of 0.25 ug/ml for loading onto the streptavidin sensor tips. […] The Octet was run using the manufacturers protocol for Basic Kinetic Assay.
(In general: Biolayer interferometry detects binding as a change in optical thickness at a sensor tip.)

As usually defined, the Kd is the constant that tells how readily two partners part at equilibrium. Low values mean a tighter complex, high ones a looser complex.

T1 sequence (P01375 77-233 limits assumed): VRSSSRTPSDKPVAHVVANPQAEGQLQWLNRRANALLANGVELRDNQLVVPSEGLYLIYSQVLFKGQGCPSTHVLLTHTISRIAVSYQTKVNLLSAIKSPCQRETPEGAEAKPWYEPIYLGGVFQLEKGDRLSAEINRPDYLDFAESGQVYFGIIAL

B1: TNF-α binder R41A6 (designed binder)
chain: NVSPPRRARVTDATETTITISWEHSEDDCYSYIYYFQVDAVPANGQTPIQRTISGYETYYTITGLQPGTDYKIYLYTLNSAGFCPPYSKPVVIDAST
notes: 14FN3 variant; for the Octet expressed from pET-20b with pelB signal and C-terminal hexahistidine tag; also called TNF A6
B1 yielded a Kd of 20 to 100 nM.
